# The nanobody polyreactivity screen of Harvey et al. (2022)
# Test: yeast display, Sf9 membrane polyspecificity reagent, FACS + sequencing; frameworks hold sequencing errors
# Procedure, shortened: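 After 36–48 hours of galactose induction, yeast (Saccharomyces cerevisiae BJ5465) displaying a synthetic nanobody library were stained at 4 °C for 1 hour with 10% biotinylated, detergent-solubilized Sf9 membrane reagent. Streptavidin microbeads enriched the stained cells before FACS sorting into low and high (top ~1%) gates on anti-HA and streptavidin fluorescence. Each clone's polyreactivity label reflects its gate of origin.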
row,Sequence,polyreactivity (PSR sort gate)
1,QVQLVESGGGLVKAGGSLRLISAATGSIFTFYAMGWYRQAPGKERELVATINRIGGNTYYADSVKGRFTISRDNAKNTVYLQMNSLKPEDTAVYYCAAKPTDRGYGYGSWGQGTQVSVSS,low polyreactivity
2,QVQLVESGGGLVKAGGSLRLSCAASFFFYDMGWYRQAPGKERELVAAISWRGDTTYYADSVKGRFTISRDNAKNTVYLQMNSLKPEDTAVYYCAADYYGNVVYPSYYWGQGTQVTVSS,high polyreactivity
3,QVQLVESGGGLVKAGGSLRLSCAASGFIFLQYVMGSYRQAPVKERELVAAITSGGSTYYADSVKARFTISRDNAKNTVYLQMNSLKPEDTAVYFCATDVADNTFDALYGSDYWGQCTQVTVSS,low polyreactivity
4,QVQLVESGGGLVKAGGSLRLSCAASGIIFDYYAMGWYRQAPGKERELVAAISWDGGRTYYADSVKGRFTISRDNAKNTVYLQMNSLKPEDTAVYYCNKDYWYGYSDFDYWGQGTQVTVSS,low polyreactivity
5,QVQLVESGGGLVKAGGSLRLSCAASGLIFIAYDMGWYRQAPGKERELVAAISSSGGSTYYADSVKGRFTISRDNAKNTVYFQMNSLKPEDTAVYYCASDTTKLQGVEGDYWGQGTQGTVSS,low polyreactivity
6,QVQLVESGGGLVKAGGSLRLSCAASGLIFRRNAMGWYRQAPGKERELVATINFRDTTRYADSVKGRFTISRDNAKNTVYFQMNSLKPEDTAVYYCATEWPERDWWVHKMDYWGQGTQVTVSS,low polyreactivity
7,QVQLVESGGGLVKAGGSLRLSCAASGLTFRVYAMGWYRQAPGKECELVATISRTGSTTYAESVQGRFTISRDNAKNTVYLQMNSLKPEDTAVYYCNARYYFLLWDSLAREYWGQGTQVTVTS,high polyreactivity
8,QVQLVESGGGLVKAGGSLRLSCAASGRIFWHNAMGWYRQAPGNERELVAAITGGGSTYYADSVKGRFTISRDNAKNTVYLQMNSLKPEDTAVYYCATLGSLRYYWPGYDYWGQGTQVTVSS,low polyreactivity
9,QVQLVESGGGLVKAGGSLRLSCAASGRIFYWYALGWYRQAPGKEREFVAVISQGGGSTRYADSVKGRFTISRDNAKNTVYLHMNSLKPEDTAVYYCAASHSRWRQGYGYWGQGTQVTVSS,high polyreactivity
10,QVQLVESGGGLVKAGGSLRLSCAASGRNFKTYAMGWYRQAPGKERELVAAISRDGRTYYADSVKGRFTISRDNAKNTVYLQMNSLKPEDTAVYFCNKRSYRKGDYWGQGTQVTVSS,low polyreactivity
11,QVQLVESGGGLVKAGGSLRLSCAASGRTFGVYAMGWYRQAPGKEREFVAVISWSDDSTYYADSVKGRFTISRDNAKNTVYFQMNSLKPEDSAVYYCAAQTPYGMYYWRQGTQVTVSS,low polyreactivity
12,QVQLVESGGGLVKAGGSLRLSCAASGRTFRAYAMGWYRQAPGKERELVAAITSGGSTKYADSVKGRFTISRDNAKNTVYLQMNSLKPEETAVYYCNARFDRVYQLKWWYSYDYWGQCTQVTVSS,high polyreactivity
13,QVQLVESGGGLVKAGGSLRLSCAASGSIFGRYAMGWYRQAPGKERELVAAISSGGRTYADSVKGRFTISRDNAKNTVYLQMNSLNPEDTAVYYCNARYDGRNSVGPYLGYNYWGQGTQVTVSS,high polyreactivity
14,QVQLVESGGGLVKAGGSLRLSCAASGSIFGSYAMGWYRQAPGKERSTYYADSVKGRFTISRDNAKNTVYLQMNSLKPEDTAVYYRAADTYGYQGSAGGHWGLGTQVTVSS,low polyreactivity
15,QVQLVESGGGLVKAGGSLRLSCAASGSIFSNNAMGWYRQAPGKEREFVAAIRGRGTRTYYADSVKGRFTISRDNAKNTVYLQMNSLKPEDTAVYYCAKYPFQPRDLQFNYWGQGTQVTVSS,high polyreactivity
16,QVQLVESGGGLVKAGGSLRLSCAASGSIFTRNAMGWYRQAPGKERELVAAIRSRGGSTYYADSVKGRFTISRDNAKNTVYLQMNSLKPEDNAVYYCAKKDNTYIFDYWGQGTQVTVSS,low polyreactivity
17,QVQLVESGGGLVKAGGSLRLSCAASGSTFEYDMGWYRPAPGKERELVAAITWTDGGTYYADSVNGRCTISRDNAKNTVYFQMNSLKPEDTAVYYCNAEGWFADFDSGFYAFDYWGQGTQVTVSS,low polyreactivity
18,QVQLVESGGGLVKAGGSLRLSCAASGSTFGSNALGWYRQAPGKERELVAAISNSGGRTYYADSVKGRFTISRDNAKNTVYLQMNSLKPEDTAVYYCAVGSYRDGDYWGQGTQVTVSS,high polyreactivity
19,QVQLVESGGGLVKAGGSLRLSCAASGSTFHIYAMGWYRQAPGKERELVAAISKGGGNTYYADSVKGRFTISRDNAKNTVYLQMNSLKPEDTAVYYCAAVPTRYRSYTYTYGGYNYWGQGTQVTVSS,high polyreactivity
20,QVQLVESGGGLVKAGGSLRLSCAASGSTFRYYAMGWYRQAPGKERELVAGITTGGGRTYYADSVKGRFTISRDNAKNTVYLQMNSLKPEDTAVYYCAADRYSHYWYRISYDYWGQGTQVTVSS,high polyreactivity
21,QVQLVESGGGLVKAGGSLRLSFAASGRIFRRYAMGWCGPAPGKEREFVAAITKSGGSTNYADSVKGRFTISRDNANNTVYLQMNSLKPEDTAVYYCATYPQFYFRYDYWGLGTQVTVSS,high polyreactivity
22,QVQLVESGGGLVKAGGSLRLSFAASGSIFEPYVMGWYRQAPGKQRELVAAISESGDTTYYADSVKGRFTISRDNAKTTVYLKMNSLKPEDTAVYDCNAEDPSIYGWWRVGEYDYWGQGTQVTVSS,low polyreactivity

row,Sequence,polyreactivity (PSR sort gate)
1,QVQLVESGGGLVKAGGSLRLSSAASGRTFFRNAMGWYRQEPGKERELVAVISDNGGTNYADSVKGRFTMSRDNAKNTVYLQLNSLKPEDTAVDYCATPKRRRYPYYYWGLGTQVTVSS,high polyreactivity
2,QVQLVESGGGLVKAGGSLRLTCAASGIILRANVMGWYRQAAGKERELLAAISGSGGRTYYADSVKGRFTISRDNAKNSVYLPMNSLKPEDTAVYYCNTPYGLHQAYPYDYWGLGTQVTVSS,high polyreactivity
3,QVQLVESGGGLVKAGGSLRLTCAASGSIFKIYSMGWYIQAPGKERELVATITWSTGTTYYADSVKGRFTISRDNAKNTVFLQMNSLKPEDTAVYYCATEPSWYHGFIDPRGYWGQATQVTVSS,low polyreactivity
4,QVQLVESGGGLVKAGGTLSLSCAASGFIFGFNAMGWYRQAPGKERELVADITSSGGSTYYADSVKGRFTISRDNAKNTVYLQMNSLKPEDTAVYYCAADGWWHNFYPGTGLDYWGQGTQVSVSS,low polyreactivity
5,QVQLVESGGGLVLAGGSLPLSCAASGSIIWRNAMGWSRHAPVKERELVAAITWNGGSTYYADSVKGCFTSSRDNAKNTVYLQMNSLIPEDTAVYYSAARCEYPYDYWGQGSQVTVSS,low polyreactivity
6,QVQLVESGGGLVLAGGSLRLSCAASGFIFARYAMGWYRQAPGKERELVAAISRGGSTYYADSVKGRFTISRDNAKNTVYFQMHSLKPEDTAVYYCNKRQLPNARGSSTYEYWGQGTQVTVSS,high polyreactivity
7,QVQLVESGGGLVLAGGSLRLSCAASGRTFRTYTMGWYRQAPGKERELVAAISYSGGSTYYADSVKGRFTISRDNAKNTVYLQMNSLKPEDTAVYYCAVYQVGWYGLMDYWGEGTQVTVSS,high polyreactivity
8,QVQLVESGGGLVLAGGSLRLSCAASGSTFRGNAMGWYRQAPGKERELVAAITRRGGSTYYADSVKGRFTISRDNAKNTVYLQMNSLKPEDTAVYYCAKVTTYVSAWQGNGYWGQGTQVTVSS,high polyreactivity
9,QVQLVESGGGLVLAGGSLRLTWAASGSIFHYYAMGWYRQAPGKERELVAAISWSGGRTYYADSVKGRFTISRDNAKNTVYLEMNSLKPEDTAVYFCAADTYPYIGGYYWGQGTQVTVSS,high polyreactivity
10,QVQLVESGGGLVNAGGSLRLICDASGLIFYKNAMGWYRQAPGKERELVAAISWRDGRTYYADSVKGRFTISRDNAKNTVYLQMISLIPEDSAVYYCNAVRGITSYDYYYWGQGTQVTVSS,high polyreactivity
11,QVQLVESGGGLVPAGGSLRLSCAASGRIFFRNAMGWYRQAPGKERELVAAITYSGGSTYYADSVKGRFTISRDNAKNTVYLQMNSLKPEDTAVSYCAAGYWFSYSRVTRYDYWGQGTQVTVSS,high polyreactivity
12,QVQLVESGGGLVPAGGSLRLSCAASGRIFGYYAMGWYRQATGKERELLATIRWRGGSPYYADSVKGRFTISRDNAKNTVYLQMNSLKPEVTAVYYCAATRARRWSSPGQYGYWGQGTQVTVSS,high polyreactivity
13,QVQLVESGGGLVPAGGSLRLSCAASGRISDLYAMGCYRQAPGKETEVVAGSTWRGGSTYYADSVKGRFTISRDNAKNTVYLQMNSLKPEDTAVYYCNAVWVQQVVGDGKRTWNFWYDYWGQGTQVTVSS,low polyreactivity
14,QVQLVESGGGLVPAGGSLRLSCAASGRTFGYYAMGWYRPAPGKERELVAAITSNGGSTYYADSVKGRFTISRDNAKNTVYLQMNSLKPEDTAVYYCNTGRRNRLYDYDYWGQGTQVTVSS,high polyreactivity
15,QVQLVESGGGLVPAGGSLRLSCAASGSTFIPNTMGWYRQAPGKERELVAAISRRGGSTNYADSVKGRFTISRDNAKNTVYLQMNSLKPEDTAVYYCAAVSPRRYRYDYWGQGTQVTVSS,low polyreactivity
16,QVQLVESGGGLVPAGGSLRLSCAASGSTFPVYAMGWYRPAPGTERELVAAINSGVSTNYADSVKGRFTMSRDNANTTVYLQRNSLKPEDTAVYYCNTSYVGYPDLGINYEFDYWGQGTQVTVSS,low polyreactivity
17,QVQLVESGGGLVPAGGSLRLSCAASGSTFYIYAMGWYRQAPGKERELVAAISRRGSSTYYADSVKGRFTISRDNAKNTVYLQMNSLIPEDTAVYYCAASQRHDHYYWGQGTQVTVSS,high polyreactivity
18,QVQLVESGGGLVQAAGSLRISCAASGRTFATNAMGWYRQAPGKERELVAVISASGGSTYYADSVKGRFTISRDNAKNTVYLQMNSLKPEDTAVYYCAADVYRRYDYWGQGTQVTVSS,high polyreactivity
19,QVQLVESGGGLVQAAGSLRLICAASGRTFDSYAMGRYRQAPGKEREFVAAISYSGTSTYYADSVKGRFTISRDDAKNTVYLQMNSLKPEDTAVYYCAKEYIFRLWGQGTQVTVSS,low polyreactivity
20,QVQLVESGGGLVQAAGSLRLICDASGFTFDLYAMGWYRQAPGKERELVAAISWSGGSTRYADSVKGGFTISRDNSKNTVYLQMTSLKPEDTALYYCARQPRLYFKVKLYGYWGQGTQVTVSS,high polyreactivity
21,QVQLVESGGGLVQAAGSLRLSCAASGLTFFGYAMGWYRQAPGKERELVAAISSSGTRTYYADSVKGRFTISRDHAKNTVYLQMNSLKPEDTAFYYCASGRYQEYDYWGQGTQVTVSS,high polyreactivity
